# Measured values from US11202837B2, “Biological materials and uses thereof” (Antikor Biopharma Limited, priority 2014, dated 2021).
# B1: scFv (TCT): anti-HER2 scFv: Tev cleavage site, C6.5, T7 tag; SEQ ID NO: 2 (protein)
# scFv: SGSGGSGQVQLVQSGAEVKKPGESLKISCKGSGYSFTSYWIAWVRQMPGKGLEYMGLIYPGDSDTKYSPSFQGQVTISVDKSVSTAYLQWSSLKPSDSAVYFCARHDVGYCSSSNCAAWPEYFQHWGQGTLVTVSSGGGGSGGGGSGGGGSQSVLTQPPSVSAAPGQKVTISCSGSSSNIGNNYVSWYQQLPGTAPKLLIYGHTNRPAGVPDRFSGSKSGTSASLAISGFRSEDEADYYCAAWDDSLSGWVFGGGTKLTVLMASMTGGQQMG
# modifications: Amino Acid sequence of cleaved TCT
# Experiments:
# [1] = Concentration reached and storage stability of purified conjugates in buffer; format: physicochemical; conditions: Storage buffer 20 mM Sodium Acetate pH5, 150 mM NaCl
# [2] = Blood clearance of 125-I radiolabelled scFv/conjugates in mice; format: in vivo, mouse; conditions: total protein level by 125-I labelling, 10 μg i.v., BALB/c mice
# Description: An scFv, optimised for lysine conjugation was prepared as described in Example 27 or 28 and conjugated (as described in Example 31) to an NHS-derived Cemadotin drug (compound 2). The average DAR was 5 for scFv-TCT-Cem-1 and 4 for scFv-TCT-Cem-2 as determined by SDS-PAGE and IEF gels. This was radiolabelled with Iodine-125 using sodium-125-Iodide (MP Biologicals) and Iodogen™ tubes (Thermo) according to the manufacturer's instructions.
# Ten micrograms of radiolabelled scFv or conjugate were injected intravenously into the tail vein of a group of 4 BALB/c female mice (Harlan UK) per time point. At each time point, blood was collected by cardiac puncture under terminal anaesthesia from 4 mice and the spleens were removed by dissection. The radioactivity from the blood and spleen tissues was measured using a gamma counter and compared to the injected dose, correcting for tissue weight. The percentage-injected dose per gram of tissue was plotted over time and pharmacokinetic parameters determined by fitting to a bi-exponential clearance model. […] This is described by the exponential decay, double, four-parameter equation y=ae^−bx+ce^−dx, where the distribution phase clearance rate (t1/2 alpha) can be determined by In 2/b, and the elimination clearance rate (t1/2 beta) can be determined by In 2/d.
# [3] = Blood clearance in mice by direct ADC/scFv detection ELISA; format: in vivo, mouse; conditions: BALB/c mice
# Description: An anti-Cemadotin MAb was raised (Example 33) and used to follow the ADC in mouse blood, to determine the pharmacokinetic properties. Normal BALB/c mice, 6-8 weeks old were maintained in filtered cages until used. A single batch of material (scFv-TCT, scFv (TCT)-Cemadotin, DAR=5 or 8) were prepared as above (Example 31) and 0.1 mg was injected into groups of 20 mice that were sacrificed at 4 time points (5 mice analysed per time point). Around 0.5 ml of whole blood was removed by cardiac puncture into EDTA-tubes and the serum collected by centrifugation. The serum was diluted appropriately into PBS and analysed by ELISA on HER2 coated micro-titre plates (Example 11D), detecting either by anti-T7 Tag (total antibody) or anti-cemadotin (total ADC). Non-injected reference samples were used to create a calibration curve for a direct read-out of ADC/ScFv blood concentration.
# [4] = Plasma pharmacokinetics in BALB/c mice (ELISA, total antibody and total ADC); format: in vivo, mouse; conditions: for Elimination half-life (hrs) Total Antibody: plasma ELISA
# Description: Mice. Female BALB/c mice (BALB/cAnNCrl, Charles River) were eight weeks old with body weights ranging from 15.9 to 21.9 grams at the beginning of the study. The animals were fed ad libitum water (reverse osmosis, 1 ppm Cl) and NIH 31 Modified and Irradiated Lab Diet® consisting of 18.0% crude protein, 5.0% crude fat, and 5.0% crude fiber. The mice were housed on irradiated Enrich-o'cobs™ Laboratory Animal Bedding in static microisolators on a 12-hour light cycle at 20-22° C. (68-72° F.) and at 40-60% humidity. Charles River Discovery Services North Carolina (CR Discovery Services, who carried out this contracted R&D) specifically complies with the recommendations of the Guide for Care and Use of Laboratory Animals with respect to restraint, husbandry, surgical procedures, feed and fluid regulation, and veterinary care. The Animal Care and Use program at CR Discovery Services is accredited by the Association for Assessment and Accreditation of Laboratory Animal Care International, which assures compliance with accepted standards for the care and use of laboratory animals.
# Therapeutic (test) Agents. All test agents were supplied as ready-to-dose dosing solutions. All dosing solutions were stored at 4° C. until dosed. All treatments were administered in a dosing volume scaled to the body weights of the individual animals to obtain the dosing concentration described in the treatment tables.
# Treatment (mice). On Day 1 of the study, mice were divided into groups each consisting of eighteen mice (per test agent being evaluated), and dosing was initiated according to the treatment plan summarized in the treatment tables. All doses were administered intravenously (i.v.) by tail vein injection as described in the tables below.
# Endpoint. The study endpoint occurred after the last sampling point, typically on Day 2 or 4, twenty-four or seventy-two hours post dose.
# Sampling (mice). Blood (full blood volume) was collected from three animals per treatment group per timepoint. Samples were collected from all animals via terminal cardiac puncture under isoflurane anesthesia. Once collected, blood samples were collected into collection tubes containing lithium heparin or K2EDTA as anticoagulants and were processed for plasma at each timepoint. Each plasma sample was stored at −80° C. until used for analysis.
# Quantification of test agents in plasma. An ELISA was carried out as described in Example 31 The detecting antibodies were (a) Anti-T7 tag to detect the scFv (total antibody), (b) Anti-Human Fab-specific to detect trastuzumab (total antibody), (c) Anti-MMAF (Concortis), Anti-MMAE (Concortis), anti-DM1
# (Concortis) and anti-cemadotin (in-house mouse monoclonal antibody, Example 33 that also recognised P5C5 and AuristatinF), total ADC. The reference test agents were used to construct a calibration curve for which the plasma samples were compared to, in order to quantify the amount present. The concentration was plotted against time (average of three animals with standard error) and fitted to a 2-phase decay curve using GraphPad Prism to derive kinetic parameters.
# HER2 = HER2 (Homo sapiens, UniProt P04626); test: Biacore SPR binding to immobilised HER2; conditions: immobilised HER2
# In short: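 HER2 amine-coupled on CM5 or CM3 chips, Biacore T200. Free antibody (typically 5-0.6 μg/ml) and conjugates (20-2.5 μg/ml) injected 160 s at 30 μl/min, 900 s dissociation (3600 s at highest concentration); regeneration with 8M MgCl2. Kinetics compared with unmodified scFv.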
# [5] = 0.1 mg injected, serum, anti-T7 tag detection
molecule,measurement,setting,value
B1,stability after multiple freeze-thaw cycles,[1],stable
same,t1/2 (alpha),[2],0.4 h
same,t1/2 (beta),[2],4.3 h
same,"t1/2 (alpha), total antibody measured by anti-HER2 binding",[3]; [5],0.4 h
same,"t1/2 (beta), total antibody measured by anti-HER2 binding",[3]; [5],5.25 h
same,blood clearance (in words),[3]; measured directly,rapid blood clearance
same,"Bioavailability (blood exposure, AUC, 24 hrs)","[4]; mice, 1 × 5 mg/kg, mean AUC in anti-payload and anti-protein detection, Table 59",2.91 μghr/ml
same,Elimination half-life (hrs) Total Antibody,"[4]; mice, 1 × 5 mg/kg, Table 55",2.78 h
same,Elimination half-life (hrs) Total Antibody,"[4]; mice, 1 × 5 mg/kg, Table 59",2.78 h
same,plasma clearance (in words),"[4]; single i.v. dose, female BALB/c mice (5 mg/kg MMAF-C5, P5C5; 2 mg/kg AF-C5, DM1)",clears rapidly
same,association rate,HER2,2.8e+06 M⁻¹ s⁻¹
same,dissociation rate,HER2,0.00417 s⁻¹
